Results taken from ChEMBL document CHEMBL2074293, “Function and expression of multidrug resistance-associated protein family in human colon adenocarcinoma cells (Caco-2)” (J Pharmacol Exp Ther, 2000).

Legend:
[1] = substrate: N[C@@H](CCC(=O)N[C@H](CSc1ccc([N+](=O)[O-])cc1[N+](=O)[O-])C(=O)NCC(=O)O)C(=O)O; experiment: (§1) TP_TRANSPORTER: uptake in brush-border membrane vesicle from Caco-2 cells; type: functional, cell membranes
[2] = substrate: C[C@]12CC[C@@H]3c4ccc(O)cc4CC[C@H]3[C@@H]1CC[C@@H]2O[C@@H]1O[C@H](C(=O)O)[C@@H](O)[C@H](O)[C@H]1O; experiment: as §1; type: functional, cell membranes

B1: ATP-binding cassette sub-family C member 2 (Homo sapiens) (protein)
chain: MLEKFCNSTFWNSSFLDSPEADLPLCFEQTVLVWIPLGYLWLLAPWQLLHVYKSRTKRSSTTKLYLAKQVFVGFLLILAAIELALVLTEDSGQATVPAVRYTNPSLYLGTWLLVLLIQYSRQWCVQKNSWFLSLFWILSILCGTFQFQTLIRTLLQGDNSNLAYSCLFFISYGFQILILIFSAFSENNESSNNPSSIASFLSSITYSWYDSIILKGYKRPLTLEDVWEVDEEMKTKTLVSKFETHMKRELQKARRALQRRQEKSSQQNSGARLPGLNKNQSQSQDALVLEDVEKKKKKSGTKKDVPKSWLMKALFKTFYMVLLKSFLLKLVNDIFTFVSPQLLKLLISFASDRDTYLWIGYLCAILLFTAALIQSFCLQCYFQLCFKLGVKVRTAIMASVYKKALTLSNLARKEYTVGETVNLMSVDAQKLMDVTNFMHMLWSSVLQIVLSIFFLWRELGPSVLAGVGVMVLVIPINAILSTKSKTIQVKNMKNKDKRLKIMNEILSGIKILKYFAWEPSFRDQVQNLRKKELKNLLAFSQLQCVVIFVFQLTPVLVSVVTFSVYVLVDSNNILDAQKAFTSITLFNILRFPLSMLPMMISSMLQASVSTERLEKYLGGDDLDTSAIRHDCNFDKAMQFSEASFTWEHDSEATVRDVNLDIMAGQLVAVIGPVGSGKSSLISAMLGEMENVHGHITIKGTTAYVPQQSWIQNGTIKDNILFGTEFNEKRYQQVLEACALLPDLEMLPGGDLAEIGEKGINLSGGQKQRISLARATYQNLDIYLLDDPLSAVDAHVGKHIFNKVLGPNGLLKGKTRLLVTHSMHFLPQVDEIVVLGNGTIVEKGSYSALLAKKGEFAKNLKTFLRHTGPEEEATVHDGSEEEDDDYGLISSVEEIPEDAASITMRRENSFRRTLSRSSRSNGRHLKSLRNSLKTRNVNSLKEDEELVKGQKLIKKEFIETGKVKFSIYLEYLQAIGLFSIFFIILAFVMNSVAFIGSNLWLSAWTSDSKIFNSTDYPASQRDMRVGVYGALGLAQGIFVFIAHFWSAFGFVHASNILHKQLLNNILRAPMRFFDTTPTGRIVNRFAGDISTVDDTLPQSLRSWITCFLGIISTLVMICMATPVFTIIVIPLGIIYVSVQMFYVSTSRQLRRLDSVTRSPIYSHFSETVSGLPVIRAFEHQQRFLKHNEVRIDTNQKCVFSWITSNRWLAIRLELVGNLTVFFSALMMVIYRDTLSGDTVGFVLSNALNITQTLNWLVRMTSEIETNIVAVERITEYTKVENEAPWVTDKRPPPDWPSKGKIQFNNYQVRYRPELDLVLRGITCDIGSMEKIGVVGRTGAGKSSLTNCLFRILEAAGGQIIIDGVDIASIGLHDLREKLTIIPQDPILFSGSLRMNLDPFNNYSDEEIWKALELAHLKSFVASLQLGLSHEVTEAGGNLSIGQRQLLCLGRALLRKSKILVLDEATAAVDLETDNLIQTTIQNEFAHCTVITIAHRLHTIMDSDKVMVLDNGKIIECGSPEELLQIPGPFYFMAKEAGIENVNSTKF
Km [1]: 16.9 µM | Km [2]: 9.4 µM
